In article PMC4943463:

Biological target: A3B-CTD (APOBEC3B C-terminal domain, wild type) (Homo sapiens, UniProt Q9UH17 187-382)
Assay: NMR titration

A3B-CTD (APOBEC3B C-terminal domain, wild type), sequence (Q9UH17 187-382): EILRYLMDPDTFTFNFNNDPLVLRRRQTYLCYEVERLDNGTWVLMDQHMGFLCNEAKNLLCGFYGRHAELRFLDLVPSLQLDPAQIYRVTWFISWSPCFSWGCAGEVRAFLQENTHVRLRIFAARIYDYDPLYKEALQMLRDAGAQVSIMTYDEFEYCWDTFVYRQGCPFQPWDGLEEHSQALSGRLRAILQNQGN

B1: 9-nt U-containing oligonucleotide ATTTUATTT (ssDNA)
DNA: ATTTUATTT
modifications: deoxyuridine at position 5 (DNA oligonucleotide, U in place of target C)
For B1, the Kd was 119 ± 26 µM.
